Data from patent publication US10005829B2, “Synthetic linear apelin mimetics for the treatment of heart failure” (priority 2012, dated 2018).
[ ]: non-standard residue; d: D form. pGlu = O=C1CC[C@@H](C(=O)O)N1; dNle = CCCC[C@@H](N)C(=O)O; Aib = CC(C)(N)C(=O)O

T1: APJ receptor (human, UniProt P35414 1-380)
T1 sequence (looked up): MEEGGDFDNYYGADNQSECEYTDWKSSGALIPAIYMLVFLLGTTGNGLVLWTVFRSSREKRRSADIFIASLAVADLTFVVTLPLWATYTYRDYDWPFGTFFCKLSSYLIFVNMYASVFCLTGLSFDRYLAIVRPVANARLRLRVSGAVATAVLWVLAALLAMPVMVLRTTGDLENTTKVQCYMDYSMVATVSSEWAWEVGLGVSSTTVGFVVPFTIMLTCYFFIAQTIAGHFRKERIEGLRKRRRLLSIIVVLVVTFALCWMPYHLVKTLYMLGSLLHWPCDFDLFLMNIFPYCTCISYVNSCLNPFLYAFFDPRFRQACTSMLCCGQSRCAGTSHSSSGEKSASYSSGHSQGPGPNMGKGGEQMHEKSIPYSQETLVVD


target: T1, APJ receptor; experiment: cell-based or functional assay

| Binder | hAPJ Ca^2+ Flux EC50 [nM] |
| --- | --- |
| [pGlu]RPRL[dA]HKGP[dNle]F-OH (SMILES CCCC[C@@H](NC(=O)[C@@H]1CCCN1C(=O)CNC(=O)[C@H](CCCCN)NC(=O)[C@H](Cc1c[nH]cn1)NC(=O)[C@@H](C)NC(=O)[C@H](CC(C)C)NC(=O)[C@H](CCCNC(=N)N)NC(=O)[C@@H]1CCCN1C(=O)[C@H](CCCNC(=N)N)NC(=O)[C@@H]1CCC(=O)N1)C(=O)N[C@@H](Cc1ccccc1)C(=O)O) [pE-R-P-R-L-a-H-K-G-P-nle-F-OH] | 66.5 |
| [pGlu]RPRL[dA]HKGP[dNle][dA][dD]-OH (SMILES CCCC[C@@H](NC(=O)[C@@H]1CCCN1C(=O)CNC(=O)[C@H](CCCCN)NC(=O)[C@H](Cc1c[nH]cn1)NC(=O)[C@@H](C)NC(=O)[C@H](CC(C)C)NC(=O)[C@H](CCCNC(=N)N)NC(=O)[C@@H]1CCCN1C(=O)[C@H](CCCNC(=N)N)NC(=O)[C@@H]1CCC(=O)N1)C(=O)N[C@H](C)C(=O)N[C@H](CC(=O)O)C(=O)O) [pE-R-P-R-L-a-H-K-G-P-nle-a-d-OH] | 86.8 |
| [pGlu]RPRL[dA]HKGP[dNle][dL][dF]-OH (SMILES CCCC[C@@H](NC(=O)[C@@H]1CCCN1C(=O)CNC(=O)[C@H](CCCCN)NC(=O)[C@H](Cc1c[nH]cn1)NC(=O)[C@@H](C)NC(=O)[C@H](CC(C)C)NC(=O)[C@H](CCCNC(=N)N)NC(=O)[C@@H]1CCCN1C(=O)[C@H](CCCNC(=N)N)NC(=O)[C@@H]1CCC(=O)N1)C(=O)N[C@H](CC(C)C)C(=O)N[C@H](Cc1ccccc1)C(=O)O) [pE-R-P-R-L-a-H-K-G-P-nle-(D-Leu)-f-OH] | 3.2 |
| [pGlu]RPRL[dA][Aib]KGP[dNle][dA][dF]-OH (SMILES CCCC[C@@H](NC(=O)[C@@H]1CCCN1C(=O)CNC(=O)[C@H](CCCCN)NC(=O)C(C)(C)NC(=O)[C@@H](C)NC(=O)[C@H](CC(C)C)NC(=O)[C@H](CCCNC(=N)N)NC(=O)[C@@H]1CCCN1C(=O)[C@H](CCCNC(=N)N)NC(=O)[C@@H]1CCC(=O)N1)C(=O)N[C@H](C)C(=O)N[C@H](Cc1ccccc1)C(=O)O) [pE-R-P-R-L-a-Aib-K-G-P-nle-a-f-OH] | 2.1 |
| [pGlu]RPRL[dA]FKGP[dNle][dA][dF]-OH (SMILES CCCC[C@@H](NC(=O)[C@@H]1CCCN1C(=O)CNC(=O)[C@H](CCCCN)NC(=O)[C@H](Cc1ccccc1)NC(=O)[C@@H](C)NC(=O)[C@H](CC(C)C)NC(=O)[C@H](CCCNC(=N)N)NC(=O)[C@@H]1CCCN1C(=O)[C@H](CCCNC(=N)N)NC(=O)[C@@H]1CCC(=O)N1)C(=O)N[C@H](C)C(=O)N[C@H](Cc1ccccc1)C(=O)O) [pE-R-P-R-L-a-F-K-G-P-nle-a-f-OH] | 3.1 |
| [pGlu]RPR[dL]S[dA]KGP[dNle][dA][dF]-OH (SMILES CCCC[C@@H](NC(=O)[C@@H]1CCCN1C(=O)CNC(=O)[C@H](CCCCN)NC(=O)[C@@H](C)NC(=O)[C@H](CO)NC(=O)[C@@H](CC(C)C)NC(=O)[C@H](CCCNC(=N)N)NC(=O)[C@@H]1CCCN1C(=O)[C@H](CCCNC(=N)N)NC(=O)[C@@H]1CCC(=O)N1)C(=O)N[C@H](C)C(=O)N[C@H](Cc1ccccc1)C(=O)O) [pE-R-P-R-(D-Leu)-S-a-K-G-P-nle-a-f-OH] | 386 |
| [pGlu]RPRL[dA]HKGP[dNle][dA][dY]-OH (SMILES CCCC[C@@H](NC(=O)[C@@H]1CCCN1C(=O)CNC(=O)[C@H](CCCCN)NC(=O)[C@H](Cc1c[nH]cn1)NC(=O)[C@@H](C)NC(=O)[C@H](CC(C)C)NC(=O)[C@H](CCCNC(=N)N)NC(=O)[C@@H]1CCCN1C(=O)[C@H](CCCNC(=N)N)NC(=O)[C@@H]1CCC(=O)N1)C(=O)N[C@H](C)C(=O)N[C@H](Cc1ccc(O)cc1)C(=O)O) [pE-R-P-R-L-a-H-K-G-P-nle-a-y-OH] | 0.9 |
| [pGlu]RPRL[dL]HKGP[dNle][dA][dF]-OH (SMILES CCCC[C@@H](NC(=O)[C@@H]1CCCN1C(=O)CNC(=O)[C@H](CCCCN)NC(=O)[C@H](Cc1c[nH]cn1)NC(=O)[C@@H](CC(C)C)NC(=O)[C@H](CC(C)C)NC(=O)[C@H](CCCNC(=N)N)NC(=O)[C@@H]1CCCN1C(=O)[C@H](CCCNC(=N)N)NC(=O)[C@@H]1CCC(=O)N1)C(=O)N[C@H](C)C(=O)N[C@H](Cc1ccccc1)C(=O)O) [pE-R-P-R-L-(D-Leu)-H-K-G-P-nle-a-f-OH] | 155 |
| [pGlu]RPRL[dA]HKGP[dNle][dP][dF]-OH (SMILES CCCC[C@@H](NC(=O)[C@@H]1CCCN1C(=O)CNC(=O)[C@H](CCCCN)NC(=O)[C@H](Cc1c[nH]cn1)NC(=O)[C@@H](C)NC(=O)[C@H](CC(C)C)NC(=O)[C@H](CCCNC(=N)N)NC(=O)[C@@H]1CCCN1C(=O)[C@H](CCCNC(=N)N)NC(=O)[C@@H]1CCC(=O)N1)C(=O)N1CCC[C@@H]1C(=O)N[C@H](Cc1ccccc1)C(=O)O) [pE-R-P-R-L-a-H-K-G-P-nle-p-f-OH] | 1.1 |
| [pGlu]RPRL[dA]HKGP[dNle][dE][dF]-OH (SMILES CCCC[C@@H](NC(=O)[C@@H]1CCCN1C(=O)CNC(=O)[C@H](CCCCN)NC(=O)[C@H](Cc1c[nH]cn1)NC(=O)[C@@H](C)NC(=O)[C@H](CC(C)C)NC(=O)[C@H](CCCNC(=N)N)NC(=O)[C@@H]1CCCN1C(=O)[C@H](CCCNC(=N)N)NC(=O)[C@@H]1CCC(=O)N1)C(=O)N[C@H](CCC(=O)O)C(=O)N[C@H](Cc1ccccc1)C(=O)O) [pE-R-P-R-L-a-H-K-G-P-nle-e-f-OH] | 170 |

The next lines start with the values.

| hAPJ Ca^2+ Flux EC50 [nM] | Binder |
| --- | --- |
| 0.9 | [pGlu]RPRL[dS]HKGP[dNle][dA][dF]-OH (SMILES CCCC[C@@H](NC(=O)[C@@H]1CCCN1C(=O)CNC(=O)[C@H](CCCCN)NC(=O)[C@H](Cc1c[nH]cn1)NC(=O)[C@@H](CO)NC(=O)[C@H](CC(C)C)NC(=O)[C@H](CCCNC(=N)N)NC(=O)[C@@H]1CCCN1C(=O)[C@H](CCCNC(=N)N)NC(=O)[C@@H]1CCC(=O)N1)C(=O)N[C@H](C)C(=O)N[C@H](Cc1ccccc1)C(=O)O) [pE-R-P-R-L-s-H-K-G-P-nle-a-f-OH] |
| 1060 | [pGlu]RPRL[dK]HKGP[dNle][dA][dF]-OH (SMILES CCCC[C@@H](NC(=O)[C@@H]1CCCN1C(=O)CNC(=O)[C@H](CCCCN)NC(=O)[C@H](Cc1c[nH]cn1)NC(=O)[C@@H](CCCCN)NC(=O)[C@H](CC(C)C)NC(=O)[C@H](CCCNC(=N)N)NC(=O)[C@@H]1CCCN1C(=O)[C@H](CCCNC(=N)N)NC(=O)[C@@H]1CCC(=O)N1)C(=O)N[C@H](C)C(=O)N[C@H](Cc1ccccc1)C(=O)O) [pE-R-P-R-L-k-H-K-G-P-nle-a-f-OH] |
| 8.8 | [pGlu]RPRL[dA][dH]KGP[dNle][dA][dF]-OH [pE-R-P-R-L-a-h-K-G-P-nle-a-f-OH] |
| 922 | [pGlu]RPRL[dA]HKGP[dNle][dR][dF]-OH (SMILES CCCC[C@@H](NC(=O)[C@@H]1CCCN1C(=O)CNC(=O)[C@H](CCCCN)NC(=O)[C@H](Cc1c[nH]cn1)NC(=O)[C@@H](C)NC(=O)[C@H](CC(C)C)NC(=O)[C@H](CCCNC(=N)N)NC(=O)[C@@H]1CCCN1C(=O)[C@H](CCCNC(=N)N)NC(=O)[C@@H]1CCC(=O)N1)C(=O)N[C@H](CCCNC(=N)N)C(=O)N[C@H](Cc1ccccc1)C(=O)O) [pE-R-P-R-L-a-H-K-G-P-nle-r-f-OH] |
| 2.3 | ERPRLAHKGXLAF (pE (pyroglutamic acid) at 1; D-Ala at 6; Pip (pipecolic acid) at 10; D-Nle at 11; D-Ala at 12; D-Phe at 13) [pE-R-P-R-L-a-H-K-G-Pip-nle-a-f-OH] |
